# From patent publication US20060029943A1
# Molecular target: HLA class I on primary cervical cancer cells CA1 and CA2 (haplotype HLA A1) (human)
# Test: cell-based or functional assay
substance,measurement,value
Mab specific for monomorphic HLA class I W6/32 (antibody),"percent killing of CA1 target, AAV/E6/Neo (purified virus) plus anti-class I antibodies (36.1+/-1.4% without antibody)",0.4%
